From patent publication US20220064644A1 (TAIPEI MEDICAL UNIVERSITY, published 2022)
Numbering of substitutions follows the chain as printed. In names and notes the source's numbering stands.

T1: GST-Q43-HTTEX1, P42858
T1 chain: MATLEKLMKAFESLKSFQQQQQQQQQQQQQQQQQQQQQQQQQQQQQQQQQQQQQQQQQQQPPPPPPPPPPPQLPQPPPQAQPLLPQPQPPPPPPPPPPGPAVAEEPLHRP

B1: 6xHis-S/T rich region only of PIAS1 (other, human, UniProt O75925 480-651, looked up)
chain: TCPSLSPTSPLNNKGILSLPHQASPVSRTPSLPAVDTSYINTSLIQDYRHPFHMTPMPYDLQGLDFFPFLSGDNQHYNTSLLAAAAAAVSDDQDLLHSSRFFPYTSSQMFLDQLSAGGSTSLPTTNGSSSGSNSSLVSSNSLRESHSHTVTNRSSTDTASIFGIIPDIISLD
notes: domain: S/T rich region; Purified recombinant protein from BL21 cells; also called S/T only; S/T-only PIAS1; not shown: 6xHis tag from the pRSETA-6xHis vector
B2: wild-type PIAS1 (Homo sapiens protein inhibitor of activated STAT 1) (protein)
chain: MADSAELKQMVMSLRVSELQVLLGYAGRNKHGRKHELLTKALHLLKAGCSPAVQMKIKELYRRRFPQKIMTPADLSIPNVHSSPMPATLSPSTIPQLTYDGHPASSPLLPVSLLGPKHELELPHLTSALHPVHPDIKLQKLPFYDLLDELIKPTSLASDNSQRFRETCFAFALTPQQVQQISSSMDISGTKCDFTVQVQLRFCLSETSCPQEDHFPPNLCVKVNTKPCSLPGYLPPTKNGVEPKRPSRPINITSLVRLSTTVPNTIVVSWTAEIGRNYSMAVYLVKQLSSTVLLQRLRAKGIRNPDHSRALIKEKLTADPDSEIATTSLRVSLLCPLGKMRLTIPCRALTCSHLQCFDATLYIQMNEKKPTWVCPVCDKKAPYEHLIIDGLFMEILKYCTDCDEIQFKEDGTWAPMRSKKEVQEVSASYNGVDGCLSSTLEHQVASHHQSSNKNKKVEVIDLTIDSSSDEEEEEPSAKRTCPSLSPTSPLNNKGILSLPHQASPVSRTPSLPAVDTSYINTSLIQDYRHPFHMTPMPYDLQGLDFFPFLSGDNQHYNTSLLAAAAAAVSDDQDLLHSSRFFPYTSSQMFLDQLSAGGSTSLPTTNGSSSGSNSSLVSSNSLRESHSHTVTNRSSTDTASIFGIIPDIISLD
B3: PIAS1 gene variant 3 (PIAS1^S510G) (protein)
chain: B2 chain with S510G

What was measured:
[1] = biological target: T2, GST protein (UniProt P08515 1-218 = GST); assay: GST pull-down with purified recombinant proteins, Western blot
T2 construct: Negative control in the pull-down assays
T2 sequence (P08515 whole entry): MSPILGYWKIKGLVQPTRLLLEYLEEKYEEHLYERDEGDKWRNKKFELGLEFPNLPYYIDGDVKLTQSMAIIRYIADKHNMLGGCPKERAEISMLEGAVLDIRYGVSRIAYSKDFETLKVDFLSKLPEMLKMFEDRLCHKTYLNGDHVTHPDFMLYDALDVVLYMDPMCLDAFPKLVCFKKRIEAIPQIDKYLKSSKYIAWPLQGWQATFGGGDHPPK
Description: The indicated lysates (1 mg) were incubated with purified recombinant GST or GST-Q₂₅-HTTEX1 protein as indicated for 60 min at 4° C. to allow complex formation. GST served as a negative control. The protein complexes were analyzed by Western blotting. The amount of PIAS1-domain-deletion mutant was normalized to the corresponding bait (GST-Q₂₅-HTTEX1 protein). The data are presented as the mean±SEM (N=4). **p<0.001 and ****p<0.0001 by one-way ANOVA. (FIG. 12 (C)) Purified recombinant 6×His-S/T rich region only of PIAS1 was incubated with purified recombinant GST or GST-Q₂₅-HTTEX1 protein for 60 min at 4° C. GST served as a negative control. The protein complexes were analyzed by Western blotting. The red arrowhead and yellow arrowhead mark the GST-Q₂₅-HTTEX1 and GST proteins, respectively. The data shown here represent three independent experiments.
GST Pull-down Assay. Cell lysates were harvested using a nondenaturing lysis buffer (137 mM NaCl, 1% NP-40, 20 mM Tris pH 8.0, and 1 mM EDTA) containing a protease inhibitor cocktail and 1× phosphatase inhibitor cocktail (Roche) and subjected to rotation at 4° C. for 1 hr. […] The bound proteins were analyzed with SDS-PAGE and Western blotting. […]

[2] = biological target: ATXN3-84Q (mutant ATXN3), P54252
ATXN3-84Q (mutant ATXN3), P54252, sequence (P54252 whole entry, looked up, change not shown, tested part not stated): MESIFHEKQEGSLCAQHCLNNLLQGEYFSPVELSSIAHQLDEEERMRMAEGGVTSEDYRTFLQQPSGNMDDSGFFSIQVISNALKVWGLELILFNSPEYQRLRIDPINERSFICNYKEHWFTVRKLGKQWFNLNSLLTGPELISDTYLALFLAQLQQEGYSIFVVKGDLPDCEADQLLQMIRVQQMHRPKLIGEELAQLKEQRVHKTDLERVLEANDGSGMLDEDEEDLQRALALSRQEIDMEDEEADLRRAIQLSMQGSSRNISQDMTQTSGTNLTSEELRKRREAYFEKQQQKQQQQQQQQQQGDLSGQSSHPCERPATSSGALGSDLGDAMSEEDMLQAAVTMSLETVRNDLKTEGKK

[3] = biological target: ATXN3-28Q (normal ATXN3), P54252
ATXN3-28Q (normal ATXN3), P54252, sequence (P54252 whole entry, looked up, tested part not stated): as the sequence (P54252 whole entry, looked up, change not shown, tested part not stated) above

[4] = biological target: T1, GST-Q43-HTTEX1, P42858

Binder	binding result [1]	in vitro SUMOylation assay (SUMO3 conjugation of ATXN3) [2]	in vitro SUMOylation assay (SUMO3 conjugation of ATXN3) [3]	in vitro SUMOylation of GST-Q43-HTTEX1 (Western blot shift) [4]
B1	no binding	–	–	–
B2	–	When PIAS1 and ATP (ATP is necessary for SUMOylation activation) participated the reaction process, formed ATXN3 SUMO conjugation (FIG. 6 (B)), both normal and mutant ATXN3	When PIAS1 and ATP (ATP is necessary for SUMOylation activation) participated the reaction process, formed ATXN3 SUMO conjugation (FIG. 6 (B)), both normal and mutant ATXN3	The addition of PIAS1^WT enhanced the SUMOylation of GST-Q43-HTTEX1
B3	–	–	–	Compared with PIAS1^WT, PIAS1^S510G induced a much lower level of SUMOylation of GST-Q43HTTEX1
